Non-standard residues stand in square brackets, D forms with d. dBip = N[C@H](Cc1ccc(-c2ccccc2)cc1)C(=O)O; Oic = O=C(O)[C@@H]1C[C@@H]2CCCC[C@@H]2N1; Phe(4-Cl) = N[C@@H](Cc1ccc(Cl)cc1)C(=O)O; Phe(4-I) = N[C@@H](Cc1ccc(I)cc1)C(=O)O; NMehArg = CN[C@@H](CCCCNC(=N)N)C(=O)O; NMeR = CN[C@@H](CCCNC(=N)N)C(=O)O; hArg = N=C(N)NCCCC[C@H](N)C(=O)O; Cha = N[C@@H](CC1CCCCC1)C(=O)O; NMeL = CN[C@@H](CC(C)C)C(=O)O; Nle = CCCC[C@H](N)C(=O)O
T1: human APJ receptor (human, UniProt P35414 1-380)
T1 sequence (looked up): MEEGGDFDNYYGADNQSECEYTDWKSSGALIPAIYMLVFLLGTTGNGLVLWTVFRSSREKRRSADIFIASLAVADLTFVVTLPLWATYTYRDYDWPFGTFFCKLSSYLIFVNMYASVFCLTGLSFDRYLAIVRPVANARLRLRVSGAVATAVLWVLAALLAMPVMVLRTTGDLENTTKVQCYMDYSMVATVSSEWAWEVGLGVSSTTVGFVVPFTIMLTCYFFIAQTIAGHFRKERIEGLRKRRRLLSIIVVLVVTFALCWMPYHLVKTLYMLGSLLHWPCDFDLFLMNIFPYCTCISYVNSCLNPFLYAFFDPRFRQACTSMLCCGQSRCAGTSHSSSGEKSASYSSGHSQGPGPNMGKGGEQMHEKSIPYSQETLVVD

T2: rat APJ receptor (rat, UniProt Q9JHG3 1-377)
T2 sequence (looked up): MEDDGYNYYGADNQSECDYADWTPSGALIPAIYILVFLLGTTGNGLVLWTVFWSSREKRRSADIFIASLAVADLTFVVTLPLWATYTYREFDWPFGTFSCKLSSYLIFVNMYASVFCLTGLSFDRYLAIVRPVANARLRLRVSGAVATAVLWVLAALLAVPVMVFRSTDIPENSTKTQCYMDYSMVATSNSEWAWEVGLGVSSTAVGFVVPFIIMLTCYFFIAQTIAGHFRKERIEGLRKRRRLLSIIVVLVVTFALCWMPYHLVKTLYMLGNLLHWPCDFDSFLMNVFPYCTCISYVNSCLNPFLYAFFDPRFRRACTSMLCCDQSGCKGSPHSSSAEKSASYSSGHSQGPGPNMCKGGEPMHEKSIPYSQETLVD


Legend:
[1] = target: T1, human APJ receptor; test: cell-based or functional assay
[2] = target: T2, rat APJ receptor; test: cell-based or functional assay

| EC50 Human APJ Receptor [1] [nM] | EC50 Rat APJ Receptor [2] [nM] | Binder |
| --- | --- | --- |
| > 4170 | > 4170 | Ac-[hArg][dR]Q[hArg]P[dR][NMeL]SHKGE[Phe(4-I)]P[dBip]-OH (SMILES CC(=O)N[C@@H](CCCCNC(=N)N)C(=O)N[C@H](CCCNC(=N)N)C(=O)N[C@@H](CCC(N)=O)C(=O)N[C@@H](CCCCNC(=N)N)C(=O)N1CCC[C@H]1C(=O)N[C@H](CCCNC(=N)N)C(=O)N(C)[C@@H](CC(C)C)C(=O)N[C@@H](CO)C(=O)N[C@@H](Cc1c[nH]cn1)C(=O)N[C@@H](CCCCN)C(=O)NCC(=O)N[C@@H](CCC(=O)O)C(=O)N[C@@H](Cc1ccc(I)cc1)C(=O)N1CCC[C@H]1C(=O)N[C@H](Cc1ccc(-c2ccccc2)cc1)C(=O)O) [SEQ ID NO: 85] |
| 1.56 | 1.08 | Ac-E[dR]Q[hArg]P[dR][NMeL]SHKG[Oic][Phe(4-I)]P[dBip]-OH [SEQ ID NO: 75] |
| 52.7 | 58.9 | Ac-[hArg][dR]Q[hArg]P[dR][NMeL]SHKG[Oic][Phe(4-I)]E[dBip]-OH (SMILES CC(=O)N[C@@H](CCCCNC(=N)N)C(=O)N[C@H](CCCNC(=N)N)C(=O)N[C@@H](CCC(N)=O)C(=O)N[C@@H](CCCCNC(=N)N)C(=O)N1CCC[C@H]1C(=O)N[C@H](CCCNC(=N)N)C(=O)N(C)[C@@H](CC(C)C)C(=O)N[C@@H](CO)C(=O)N[C@@H](Cc1c[nH]cn1)C(=O)N[C@@H](CCCCN)C(=O)NCC(=O)N1[C@H](C(=O)N[C@@H](Cc2ccc(I)cc2)C(=O)N[C@@H](CCC(=O)O)C(=O)N[C@H](Cc2ccc(-c3ccccc3)cc2)C(=O)O)C[C@@H]2CCCC[C@@H]21) [SEQ ID NO: 87] |
| 0.159 | 0.189 | Ac-Q[hArg]P[NMeR][Cha]SHKG[Oic][Nle]P[Phe(4-Cl)]-OH (SMILES CCCC[C@H](NC(=O)[C@@H]1C[C@@H]2CCCC[C@@H]2N1C(=O)CNC(=O)[C@H](CCCCN)NC(=O)[C@H](Cc1c[nH]cn1)NC(=O)[C@H](CO)NC(=O)[C@H](CC1CCCCC1)NC(=O)[C@H](CCCNC(=N)N)N(C)C(=O)[C@@H]1CCCN1C(=O)[C@H](CCCCNC(=N)N)NC(=O)[C@H](CCC(N)=O)NC(C)=O)C(=O)N1CCC[C@H]1C(=O)N[C@@H](Cc1ccc(Cl)cc1)C(=O)O) [SEQ ID NO: 61] |
| 127 | 68.7 | Ac-[hArg][dR]Q[hArg]P[dR]ESHKG[Oic][Phe(4-I)]P[dBip]-OH (SMILES CC(=O)N[C@@H](CCCCNC(=N)N)C(=O)N[C@H](CCCNC(=N)N)C(=O)N[C@@H](CCC(N)=O)C(=O)N[C@@H](CCCCNC(=N)N)C(=O)N1CCC[C@H]1C(=O)N[C@H](CCCNC(=N)N)C(=O)N[C@@H](CCC(=O)O)C(=O)N[C@@H](CO)C(=O)N[C@@H](Cc1c[nH]cn1)C(=O)N[C@@H](CCCCN)C(=O)NCC(=O)N1[C@H](C(=O)N[C@@H](Cc2ccc(I)cc2)C(=O)N2CCC[C@H]2C(=O)N[C@H](Cc2ccc(-c3ccccc3)cc2)C(=O)O)C[C@@H]2CCCC[C@@H]21) [SEQ ID NO: 80] |
| 83.8 | 70.6 | Ac-[hArg][dR]Q[hArg]P[dR][NMeL]EHKG[Oic][Phe(4-I)]P[dBip]-OH (SMILES CC(=O)N[C@@H](CCCCNC(=N)N)C(=O)N[C@H](CCCNC(=N)N)C(=O)N[C@@H](CCC(N)=O)C(=O)N[C@@H](CCCCNC(=N)N)C(=O)N1CCC[C@H]1C(=O)N[C@H](CCCNC(=N)N)C(=O)N(C)[C@@H](CC(C)C)C(=O)N[C@@H](CCC(=O)O)C(=O)N[C@@H](Cc1c[nH]cn1)C(=O)N[C@@H](CCCCN)C(=O)NCC(=O)N1[C@H](C(=O)N[C@@H](Cc2ccc(I)cc2)C(=O)N2CCC[C@H]2C(=O)N[C@H](Cc2ccc(-c3ccccc3)cc2)C(=O)O)C[C@@H]2CCCC[C@@H]21) [SEQ ID NO: 81] |
| > 4170 | > 4170 | Ac-[hArg][dR]Q[hArg]P[dR][NMeL]SHKG[Oic]EP[dBip]-OH (SMILES CC(=O)N[C@@H](CCCCNC(=N)N)C(=O)N[C@H](CCCNC(=N)N)C(=O)N[C@@H](CCC(N)=O)C(=O)N[C@@H](CCCCNC(=N)N)C(=O)N1CCC[C@H]1C(=O)N[C@H](CCCNC(=N)N)C(=O)N(C)[C@@H](CC(C)C)C(=O)N[C@@H](CO)C(=O)N[C@@H](Cc1c[nH]cn1)C(=O)N[C@@H](CCCCN)C(=O)NCC(=O)N1[C@H](C(=O)N[C@@H](CCC(=O)O)C(=O)N2CCC[C@H]2C(=O)N[C@H](Cc2ccc(-c3ccccc3)cc2)C(=O)O)C[C@@H]2CCCC[C@@H]21) [SEQ ID NO: 86] |
| 0.678 | 0.341 | Ac-[hArg][dR]Q[hArg]PE[NMeL]SHKG[Oic][Phe(4-I)]P[dBip]-OH (SMILES CC(=O)N[C@@H](CCCCNC(=N)N)C(=O)N[C@H](CCCNC(=N)N)C(=O)N[C@@H](CCC(N)=O)C(=O)N[C@@H](CCCCNC(=N)N)C(=O)N1CCC[C@H]1C(=O)N[C@@H](CCC(=O)O)C(=O)N(C)[C@@H](CC(C)C)C(=O)N[C@@H](CO)C(=O)N[C@@H](Cc1c[nH]cn1)C(=O)N[C@@H](CCCCN)C(=O)NCC(=O)N1[C@H](C(=O)N[C@@H](Cc2ccc(I)cc2)C(=O)N2CCC[C@H]2C(=O)N[C@H](Cc2ccc(-c3ccccc3)cc2)C(=O)O)C[C@@H]2CCCC[C@@H]21) [SEQ ID NO: 79] |
| 4.92 | 2.84 | Ac-[hArg][dR]QEP[dR][NMeL]SHKG[Oic][Phe(4-I)]P[dBip]-OH [SEQ ID NO: 77] |
| 18.1 | 89.3 | Ac-[hArg][dR]Q[hArg]P[dR][NMeL]SHKE[Oic][Phe(4-I)]P[dBip]-OH (SMILES CC(=O)N[C@@H](CCCCNC(=N)N)C(=O)N[C@H](CCCNC(=N)N)C(=O)N[C@@H](CCC(N)=O)C(=O)N[C@@H](CCCCNC(=N)N)C(=O)N1CCC[C@H]1C(=O)N[C@H](CCCNC(=N)N)C(=O)N(C)[C@@H](CC(C)C)C(=O)N[C@@H](CO)C(=O)N[C@@H](Cc1c[nH]cn1)C(=O)N[C@@H](CCCCN)C(=O)N[C@@H](CCC(=O)O)C(=O)N1[C@H](C(=O)N[C@@H](Cc2ccc(I)cc2)C(=O)N2CCC[C@H]2C(=O)N[C@H](Cc2ccc(-c3ccccc3)cc2)C(=O)O)C[C@@H]2CCCC[C@@H]21) [SEQ ID NO: 84] |
| 23.2 | 53.9 | Ac-[hArg][dR]Q[hArg]P[dR][NMeL]SEKG[Oic][Phe(4-I)]P[dBip]-OH (SMILES CC(=O)N[C@@H](CCCCNC(=N)N)C(=O)N[C@H](CCCNC(=N)N)C(=O)N[C@@H](CCC(N)=O)C(=O)N[C@@H](CCCCNC(=N)N)C(=O)N1CCC[C@H]1C(=O)N[C@H](CCCNC(=N)N)C(=O)N(C)[C@@H](CC(C)C)C(=O)N[C@@H](CO)C(=O)N[C@@H](CCC(=O)O)C(=O)N[C@@H](CCCCN)C(=O)NCC(=O)N1[C@H](C(=O)N[C@@H](Cc2ccc(I)cc2)C(=O)N2CCC[C@H]2C(=O)N[C@H](Cc2ccc(-c3ccccc3)cc2)C(=O)O)C[C@@H]2CCCC[C@@H]21) [SEQ ID NO: 82] |
| 54.5 | 84.7 | Ac-[hArg][dR]Q[hArg]P[dR][NMeL]SHEG[Oic][Phe(4-I)]P[dBip]-OH (SMILES CC(=O)N[C@@H](CCCCNC(=N)N)C(=O)N[C@H](CCCNC(=N)N)C(=O)N[C@@H](CCC(N)=O)C(=O)N[C@@H](CCCCNC(=N)N)C(=O)N1CCC[C@H]1C(=O)N[C@H](CCCNC(=N)N)C(=O)N(C)[C@@H](CC(C)C)C(=O)N[C@@H](CO)C(=O)N[C@@H](Cc1c[nH]cn1)C(=O)N[C@@H](CCC(=O)O)C(=O)NCC(=O)N1[C@H](C(=O)N[C@@H](Cc2ccc(I)cc2)C(=O)N2CCC[C@H]2C(=O)N[C@H](Cc2ccc(-c3ccccc3)cc2)C(=O)O)C[C@@H]2CCCC[C@@H]21) [SEQ ID NO: 83] |
| 0.48 | 17.3 | Ac-Q[hArg][NMehArg]LSHKGP[Nle]P[Phe(4-Cl)]-OH (SMILES CCCC[C@H](NC(=O)[C@@H]1CCCN1C(=O)CNC(=O)[C@H](CCCCN)NC(=O)[C@H](Cc1c[nH]cn1)NC(=O)[C@H](CO)NC(=O)[C@H](CC(C)C)NC(=O)[C@H](CCCCNC(=N)N)N(C)C(=O)[C@H](CCCCNC(=N)N)NC(=O)[C@H](CCC(N)=O)NC(C)=O)C(=O)N1CCC[C@H]1C(=O)N[C@@H](Cc1ccc(Cl)cc1)C(=O)O) [SEQ ID NO: 74] |

Source: patent US10941182 (Amgen, dated 2021)
